Source: IntAct's records for PubMed 21240272

B1: F-box-like/WD repeat-containing protein TBL1X (Homo sapiens), O60907-2 (parent)
chain: MSITSDEVNFLVYRYLQESGFSHSAFTFGIESHISQSNINGTLVPPAALISILQKGLQYVEAEISINEDGTVFDGRPIESLSLIDAVMPDVVQTRQQAFREKLAQQQASAAAAAAAATAAATAATTTSAGVSHQNPSKNREATVNGEENRAHSVNNHAKPMEIDGEVEIPSSKATVLRGHESEVFICAWNPVSDLLASGSGDSTARIWNLNENSNGGSTQLVLRHCIREGGHDVPSNKDVTSLDWNTNGTLLATGSYDGFARIWTEDGNLASTLGQHKGPIFALKWNRKGNYILSAGVDKTTIIWDAHTGEAKQQFPFHSAPALDVDWQNNTTFASCSTDMCIHVCRLGCDRPVKTFQGHTNEVNAIKWDPSGMLLASCSDDMTLKIWSMKQEVCIHDLQAHNKEIYTIKWSPTGPATSNPNSNIMLASASFDSTVRLWDIERGVCTHTLTKHQEPVYSVAFSPDGKYLASGSFDKCVHIWNTQSGNLVHSYRGTGGIFEVCWNARGDKVGASASDGSVCVLDLRK
B2: G protein pathway suppressor 2 (Homo sapiens), Q13227 (parent)
chain: MPALLERPKLSNAMARALHRHIMMERERKRQEEEEVDKMMEQKMKEEQERRKKKEMEERMSLEETKEQILKLEEKLLALQEEKHQLFLQLKKVLHEEEKRRRKEQSDLTTLTSAAYQQSLTVHTGTHLLSMQGSPGGHNRPGTLMAADRAKQMFGPQVLTTRHYVGSAAAFAGTPEHGQFQGSPGGAYGTAQPPPHYGPTQPAYSPSQQLRAPSAFPAVQYLSQPQPQPYAVHGHFQPTQTGFLQPGGALSLQKQMEHANQQTGFSDSSSLRPMHPQALHPAPGLLASPQLPVQMQPAGKSGFAATSQPGPRLPFIQHSQNPRFYHK
partner: B1 chain

Variants of: B1
Details: with ncor2_human NCOR2, Q9Y618
Sequence of ncor2_human NCOR2, Q9Y618 (Q9Y618 whole entry): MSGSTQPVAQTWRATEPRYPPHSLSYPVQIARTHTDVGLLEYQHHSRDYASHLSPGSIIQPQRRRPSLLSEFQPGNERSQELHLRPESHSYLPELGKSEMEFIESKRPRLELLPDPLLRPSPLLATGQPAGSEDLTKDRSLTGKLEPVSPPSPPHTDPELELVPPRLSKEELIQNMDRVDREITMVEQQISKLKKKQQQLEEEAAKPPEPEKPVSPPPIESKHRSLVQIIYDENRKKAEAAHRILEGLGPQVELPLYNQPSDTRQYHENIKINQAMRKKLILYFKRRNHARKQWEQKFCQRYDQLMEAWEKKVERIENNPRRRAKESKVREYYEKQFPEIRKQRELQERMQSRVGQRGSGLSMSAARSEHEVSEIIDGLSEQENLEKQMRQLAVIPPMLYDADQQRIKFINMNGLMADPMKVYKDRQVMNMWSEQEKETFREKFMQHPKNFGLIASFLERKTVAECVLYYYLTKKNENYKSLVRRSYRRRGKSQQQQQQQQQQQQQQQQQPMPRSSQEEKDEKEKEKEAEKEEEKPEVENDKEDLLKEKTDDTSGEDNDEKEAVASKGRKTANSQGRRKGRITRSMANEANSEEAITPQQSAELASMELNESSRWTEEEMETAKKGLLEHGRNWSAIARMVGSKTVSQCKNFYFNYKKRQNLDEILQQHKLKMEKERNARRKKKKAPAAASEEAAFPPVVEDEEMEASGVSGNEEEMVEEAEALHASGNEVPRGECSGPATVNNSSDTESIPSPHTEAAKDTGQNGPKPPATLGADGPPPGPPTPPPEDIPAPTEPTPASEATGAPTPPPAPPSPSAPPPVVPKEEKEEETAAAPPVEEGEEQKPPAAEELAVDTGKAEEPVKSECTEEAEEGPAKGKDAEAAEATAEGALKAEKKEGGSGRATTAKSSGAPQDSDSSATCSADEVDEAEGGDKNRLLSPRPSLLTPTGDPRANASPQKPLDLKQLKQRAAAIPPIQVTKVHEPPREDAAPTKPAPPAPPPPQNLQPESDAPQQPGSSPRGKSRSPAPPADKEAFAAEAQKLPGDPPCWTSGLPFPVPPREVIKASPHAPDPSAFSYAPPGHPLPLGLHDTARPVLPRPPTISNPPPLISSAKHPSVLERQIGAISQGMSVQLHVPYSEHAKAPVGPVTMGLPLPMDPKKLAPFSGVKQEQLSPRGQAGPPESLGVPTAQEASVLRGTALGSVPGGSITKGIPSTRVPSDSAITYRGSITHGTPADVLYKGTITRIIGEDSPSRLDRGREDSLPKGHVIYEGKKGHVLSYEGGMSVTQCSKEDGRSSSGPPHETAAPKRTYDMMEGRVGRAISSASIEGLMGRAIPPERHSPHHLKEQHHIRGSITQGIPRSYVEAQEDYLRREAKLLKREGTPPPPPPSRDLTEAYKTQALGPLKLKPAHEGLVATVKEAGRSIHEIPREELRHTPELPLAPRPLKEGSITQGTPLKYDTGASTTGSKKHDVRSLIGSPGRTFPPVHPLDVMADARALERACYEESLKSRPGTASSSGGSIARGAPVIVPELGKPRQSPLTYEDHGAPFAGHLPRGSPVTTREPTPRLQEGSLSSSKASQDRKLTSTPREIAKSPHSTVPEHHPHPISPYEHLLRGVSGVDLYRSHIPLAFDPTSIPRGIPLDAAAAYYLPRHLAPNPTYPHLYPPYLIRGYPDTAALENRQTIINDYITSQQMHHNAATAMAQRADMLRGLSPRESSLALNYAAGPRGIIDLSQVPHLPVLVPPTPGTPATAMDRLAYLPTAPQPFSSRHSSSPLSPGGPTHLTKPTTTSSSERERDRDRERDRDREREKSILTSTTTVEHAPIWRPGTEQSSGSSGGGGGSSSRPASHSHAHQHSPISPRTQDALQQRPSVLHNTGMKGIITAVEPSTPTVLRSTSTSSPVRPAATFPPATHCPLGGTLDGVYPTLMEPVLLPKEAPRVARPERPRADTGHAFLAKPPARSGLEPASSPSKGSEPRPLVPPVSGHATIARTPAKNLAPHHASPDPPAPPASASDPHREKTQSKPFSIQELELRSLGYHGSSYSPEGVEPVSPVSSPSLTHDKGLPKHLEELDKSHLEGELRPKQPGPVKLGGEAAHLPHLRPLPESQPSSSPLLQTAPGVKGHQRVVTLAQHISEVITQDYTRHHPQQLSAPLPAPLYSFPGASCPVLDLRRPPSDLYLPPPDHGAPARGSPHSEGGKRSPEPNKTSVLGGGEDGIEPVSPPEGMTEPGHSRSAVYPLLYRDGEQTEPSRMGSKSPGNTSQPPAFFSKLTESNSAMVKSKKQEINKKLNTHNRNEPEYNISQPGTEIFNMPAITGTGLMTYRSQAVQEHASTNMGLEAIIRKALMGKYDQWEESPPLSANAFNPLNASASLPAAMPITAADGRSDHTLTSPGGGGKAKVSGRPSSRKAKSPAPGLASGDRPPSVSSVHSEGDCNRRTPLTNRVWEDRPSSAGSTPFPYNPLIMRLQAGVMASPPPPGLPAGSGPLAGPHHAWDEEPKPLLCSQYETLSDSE

Row | Variant | effect of a mutation on the interaction
1 | MSITSDEVNFLVYRYLQESGFSHSAFTFGIESHISQSNINGTLVGPAALISILQKGLQYVEAEISINEDGTVFDGRPIESLSLIDAVMPDVVQTRQQAFREKLAQQQASAAAAAAAATAAATAATTTSAGVSHQNPSKNREATVNGEENRAHSVNNHAKPMEIDGEVEIPSSKATVLRGHESEVFICAWNPVSDLLASGSGDSTARIWNLNENSNGGSTQLVLRHCIREGGHDVPSNKDVTSLDWNTNGTLLATGSYDGFARIWTEDGNLASTLGQHKGPIFALKWNRKGNYILSAGVDKTTIIWDAHTGEAKQQFPFHSAPALDVDWQNNTTFASCSTDMCIHVCRLGCDRPVKTFQGHTNEVNAIKWDPSGMLLASCSDDMTLKIWSMKQEVCIHDLQAHNKEIYTIKWSPTGPATSNPNSNIMLASASFDSTVRLWDIERGVCTHTLTKHQEPVYSVAFSPDGKYLASGSFDKCVHIWNTQSGNLVHSYRGTGGIFEVCWNARGDKVGASASDGSVCVLDLRK [P45G] | decreasing interaction
2 | MSITSDEVNFLVYRYLQESGFSHSAFTFGIESHISQSNINGTLVPPAALISILQKGLQYNEAEISINEDGTVFDGRPIESLSLIDAVMPDVVQTRQQAFREKLAQQQASAAAAAAAATAAATAATTTSAGVSHQNPSKNREATVNGEENRAHSVNNHAKPMEIDGEVEIPSSKATVLRGHESEVFICAWNPVSDLLASGSGDSTARIWNLNENSNGGSTQLVLRHCIREGGHDVPSNKDVTSLDWNTNGTLLATGSYDGFARIWTEDGNLASTLGQHKGPIFALKWNRKGNYILSAGVDKTTIIWDAHTGEAKQQFPFHSAPALDVDWQNNTTFASCSTDMCIHVCRLGCDRPVKTFQGHTNEVNAIKWDPSGMLLASCSDDMTLKIWSMKQEVCIHDLQAHNKEIYTIKWSPTGPATSNPNSNIMLASASFDSTVRLWDIERGVCTHTLTKHQEPVYSVAFSPDGKYLASGSFDKCVHIWNTQSGNLVHSYRGTGGIFEVCWNARGDKVGASASDGSVCVLDLRK [V60N] | disrupting interaction
3 | MSITSDEVNFLVYRYLQESGFSHSAFTFGIESHISQSNINGTLVPPAALISILQKGAQYVEAEISINEDGTVFDGRPIESLSLIDAVMPDVVQTRQQAFREKLAQQQASAAAAAAAATAAATAATTTSAGVSHQNPSKNREATVNGEENRAHSVNNHAKPMEIDGEVEIPSSKATVLRGHESEVFICAWNPVSDLLASGSGDSTARIWNLNENSNGGSTQLVLRHCIREGGHDVPSNKDVTSLDWNTNGTLLATGSYDGFARIWTEDGNLASTLGQHKGPIFALKWNRKGNYILSAGVDKTTIIWDAHTGEAKQQFPFHSAPALDVDWQNNTTFASCSTDMCIHVCRLGCDRPVKTFQGHTNEVNAIKWDPSGMLLASCSDDMTLKIWSMKQEVCIHDLQAHNKEIYTIKWSPTGPATSNPNSNIMLASASFDSTVRLWDIERGVCTHTLTKHQEPVYSVAFSPDGKYLASGSFDKCVHIWNTQSGNLVHSYRGTGGIFEVCWNARGDKVGASASDGSVCVLDLRK [L57A] | decreasing interaction strength
4 | MSITSDEVNFLVYRYLQESGFSHSAFTFGIESHISQSNINGTLVPPAALISILQKGQQYVEAEISINEDGTVFDGRPIESLSLIDAVMPDVVQTRQQAFREKLAQQQASAAAAAAAATAAATAATTTSAGVSHQNPSKNREATVNGEENRAHSVNNHAKPMEIDGEVEIPSSKATVLRGHESEVFICAWNPVSDLLASGSGDSTARIWNLNENSNGGSTQLVLRHCIREGGHDVPSNKDVTSLDWNTNGTLLATGSYDGFARIWTEDGNLASTLGQHKGPIFALKWNRKGNYILSAGVDKTTIIWDAHTGEAKQQFPFHSAPALDVDWQNNTTFASCSTDMCIHVCRLGCDRPVKTFQGHTNEVNAIKWDPSGMLLASCSDDMTLKIWSMKQEVCIHDLQAHNKEIYTIKWSPTGPATSNPNSNIMLASASFDSTVRLWDIERGVCTHTLTKHQEPVYSVAFSPDGKYLASGSFDKCVHIWNTQSGNLVHSYRGTGGIFEVCWNARGDKVGASASDGSVCVLDLRK [L57Q] | decreasing interaction strength
5 | MSITSDEVNFLVYRYLQESGFSHSAFTFGIESHISQSNANGTLVPPAALISILQKGLQYVEAEISINEDGTVFDGRPIESLSLIDAVMPDVVQTRQQAFREKLAQQQASAAAAAAAATAAATAATTTSAGVSHQNPSKNREATVNGEENRAHSVNNHAKPMEIDGEVEIPSSKATVLRGHESEVFICAWNPVSDLLASGSGDSTARIWNLNENSNGGSTQLVLRHCIREGGHDVPSNKDVTSLDWNTNGTLLATGSYDGFARIWTEDGNLASTLGQHKGPIFALKWNRKGNYILSAGVDKTTIIWDAHTGEAKQQFPFHSAPALDVDWQNNTTFASCSTDMCIHVCRLGCDRPVKTFQGHTNEVNAIKWDPSGMLLASCSDDMTLKIWSMKQEVCIHDLQAHNKEIYTIKWSPTGPATSNPNSNIMLASASFDSTVRLWDIERGVCTHTLTKHQEPVYSVAFSPDGKYLASGSFDKCVHIWNTQSGNLVHSYRGTGGIFEVCWNARGDKVGASASDGSVCVLDLRK [I39A] | decreasing interaction

Variants of: B1
Details: with gps2_human GPS2, Q13227

Row | Variant | effect of a mutation on the interaction
6 | MSITSDEVNFLVYRYLQESGFSHSAFTFGIESHISQSNINGTLVPPAALISILQKGLQYNEAEISINEDGTVFDGRPIESLSLIDAVMPDVVQTRQQAFREKLAQQQASAAAAAAAATAAATAATTTSAGVSHQNPSKNREATVNGEENRAHSVNNHAKPMEIDGEVEIPSSKATVLRGHESEVFICAWNPVSDLLASGSGDSTARIWNLNENSNGGSTQLVLRHCIREGGHDVPSNKDVTSLDWNTNGTLLATGSYDGFARIWTEDGNLASTLGQHKGPIFALKWNRKGNYILSAGVDKTTIIWDAHTGEAKQQFPFHSAPALDVDWQNNTTFASCSTDMCIHVCRLGCDRPVKTFQGHTNEVNAIKWDPSGMLLASCSDDMTLKIWSMKQEVCIHDLQAHNKEIYTIKWSPTGPATSNPNSNIMLASASFDSTVRLWDIERGVCTHTLTKHQEPVYSVAFSPDGKYLASGSFDKCVHIWNTQSGNLVHSYRGTGGIFEVCWNARGDKVGASASDGSVCVLDLRK [V60N] | disrupting interaction
7 | MSITSDEVNFLVYRYLQESGFSHSAFTFGIESHISQSNINGTLVPPAALISILQKGAQYVEAEISINEDGTVFDGRPIESLSLIDAVMPDVVQTRQQAFREKLAQQQASAAAAAAAATAAATAATTTSAGVSHQNPSKNREATVNGEENRAHSVNNHAKPMEIDGEVEIPSSKATVLRGHESEVFICAWNPVSDLLASGSGDSTARIWNLNENSNGGSTQLVLRHCIREGGHDVPSNKDVTSLDWNTNGTLLATGSYDGFARIWTEDGNLASTLGQHKGPIFALKWNRKGNYILSAGVDKTTIIWDAHTGEAKQQFPFHSAPALDVDWQNNTTFASCSTDMCIHVCRLGCDRPVKTFQGHTNEVNAIKWDPSGMLLASCSDDMTLKIWSMKQEVCIHDLQAHNKEIYTIKWSPTGPATSNPNSNIMLASASFDSTVRLWDIERGVCTHTLTKHQEPVYSVAFSPDGKYLASGSFDKCVHIWNTQSGNLVHSYRGTGGIFEVCWNARGDKVGASASDGSVCVLDLRK [L57A] | decreasing interaction strength
8 | MSITSDEVNFLVYRYLQESGFSHSAFTFGIESHISQSNINGTLVPPAALISILQKGQQYVEAEISINEDGTVFDGRPIESLSLIDAVMPDVVQTRQQAFREKLAQQQASAAAAAAAATAAATAATTTSAGVSHQNPSKNREATVNGEENRAHSVNNHAKPMEIDGEVEIPSSKATVLRGHESEVFICAWNPVSDLLASGSGDSTARIWNLNENSNGGSTQLVLRHCIREGGHDVPSNKDVTSLDWNTNGTLLATGSYDGFARIWTEDGNLASTLGQHKGPIFALKWNRKGNYILSAGVDKTTIIWDAHTGEAKQQFPFHSAPALDVDWQNNTTFASCSTDMCIHVCRLGCDRPVKTFQGHTNEVNAIKWDPSGMLLASCSDDMTLKIWSMKQEVCIHDLQAHNKEIYTIKWSPTGPATSNPNSNIMLASASFDSTVRLWDIERGVCTHTLTKHQEPVYSVAFSPDGKYLASGSFDKCVHIWNTQSGNLVHSYRGTGGIFEVCWNARGDKVGASASDGSVCVLDLRK [L57Q] | decreasing interaction strength

Variants of: B2
Details: with TBL1X

Row | Variant | effect of a mutation on the interaction
9 | MPALLERPKLSNAMARALAEHAMMERERKRQEEEEVDKMMEQKMKEEQERRKKKEMEERMSLEETKEQILKLEEKLLALQEEKHQLFLQLKKVLHEEEKRRRKEQSDLTTLTSAAYQQSLTVHTGTHLLSMQGSPGGHNRPGTLMAADRAKQMFGPQVLTTRHYVGSAAAFAGTPEHGQFQGSPGGAYGTAQPPPHYGPTQPAYSPSQQLRAPSAFPAVQYLSQPQPQPYAVHGHFQPTQTGFLQPGGALSLQKQMEHANQQTGFSDSSSLRPMHPQALHPAPGLLASPQLPVQMQPAGKSGFAATSQPGPRLPFIQHSQNPRFYHK [H19A;R20E;I22A] | disrupting interaction
